The values below come from patent US20080026996A1, “Selective Vpac2 Receptor Reptide Agonists” (ELI LILLY AND COMPANY, priority 2004, published 2008).

First the molecules themselves.
B1: P194 (peptide)
peptide: Hexanoyl-HSDAVFTDNYTRLRK(Ac)QVAAKK(Ac)YLQSIKNKRYGGPSSGAPPPS
B2: P223 (peptide)
peptide: Hexanoyl-HSDLVFTDNYTRLRKQVAAKKYLQSIKNKRYGGPSSGAPPPS
B3: P228 (peptide)
peptide: Hexanoyl-HSDAVFTDNYTRLRKQVAAKK[Aib]LQSIKNKRYGGPSSGAPPPS
modifications: ends and bridges not checked
B4: P221 (peptide)
peptide: Hexanoyl-HSDIVFTDNYTRLRKQVAAKKYLQSIKNKRYGGPSSGAPPPS
B5: P199 (peptide)
peptide: [Met(O)]HSDAVFTDNYTRLRKQVAAKKYLQSIKNKRYGGPSSGAPPPS
modifications: ends and bridges not checked
B6: P250 (peptide)
peptide: Hexanoyl-HSDAVFTDNYTRLQKQVAA[Aib]KYLQSIKNKRYGGPSSGAPPPS
modifications: ends and bridges not checked
B7: P249 (peptide)
peptide: Hexanoyl-HSDAVFTDNYTRL[Aib]KQVAAKQYLQSIKNKRYGGPSSGAPPPS
modifications: ends and bridges not checked
B8: P269 (peptide)
peptide: Hexanoyl-HSDAVFTDNYTRL[Aib]KQVAAVKYLQSIKNKRYGGPSSGAPPPS
modifications: ends and bridges not checked
B9: P260 (peptide)
peptide: Hexanoyl-HSDAVFTDNYTRL[Aib]KQVAAAKYLQSIKNKRYGGPSSGAPPPS
modifications: ends and bridges not checked
B10: P259 (peptide)
peptide: Hexanoyl-HSDAVFTDNYTRL[Aib]KQVAALKYLQSIKNKRYGGPSSGAPPPS
modifications: ends and bridges not checked
B11: P211 (peptide)
peptide: Hexanoyl-HSDA[NMeV]FTDNYTRLRKQVAAKKYLQSIKNKRYGGPSSGAPPPS
B12: P205 (peptide)
peptide: [Mpa]HSDAVFTDNYTRLLAKLALQKYLQSIKNKRYGGPSSGAPPPS
B13: P208 (peptide)
peptide: Hexanoyl-HSD[NMeA]VFTDNYTRLRKQVAAKKYLQSIKNKRYGGPSSGAPPPS
B14: P212 (peptide)
peptide: Hexanoyl-HSDA[Aib]FTDNYTRLRKQVAAKKYLQSIKNKRYGGPSSGAPPPS
modifications: ends and bridges not checked
B15: P258 (peptide)
peptide: Hexanoyl-HSDAVFTDNYTRLQ[Aib]QVAAKKYLQSIKNKRYGGPSSGAPPPS
modifications: ends and bridges not checked
B16: P262 (peptide)
peptide: Hexanoyl-HSDAVFTDNYTRLR[Aib]QVAAVKYLQSIKNKRYGGPSSGAPPPS
modifications: ends and bridges not checked
B17: P229 (peptide)
peptide: Hexanoyl-HSDAVFTDNYTRLRKQVAAKKALQSIKNKRYGGPSSGAPPPS
B18: P220 (peptide)
peptide: Hexanoyl-HSDAVFTDQYTRLRRQVAARKYLQSIRQGGPSSGAPPPS
B19: P236 (peptide)
peptide: Hexanoyl-HSDAVFTDNYTRLRKQVAAKKY[Aib]QSIKNKRYGGPSSGAPPPS
modifications: ends and bridges not checked
B20: P207 (peptide)
peptide: Hexanoyl-HSD[dA]VFTDNYTRLRKQVAAKKYLQSIKNKRYGGPSSGAPPPS
B21: P184 (peptide)
peptide: Hexanoyl-HSDAVFTDNYTRLRKQVAAKAYLQSIKNKRYGGPSSGAPPPS
B22: P235 (peptide)
peptide: Hexanoyl-HSDAVFTDNYTRLRKQVAAKKYAQSIKNKRYGGPSSGAPPPS
B23: P185 (peptide)
peptide: Hexanoyl-HSDAVFTDNYTRLRKQVAAKLYLQSIKNKRYGGPSSGAPPPS
B24: P196 (peptide)
peptide: Hexanoyl-HSDAVFTDNYTRLLAKVALQKYLQSIKNKRYGGPSSGAPPPS
B25: P233 (peptide)
peptide: Hexanoyl-HSDAVFTDNYTRLRKQVAAKKYIQSIKNKRYGGPSSGAPPPS
B26: P289 (peptide)
peptide: Hexanoyl-HSDALFTDNYTRLRKQVAAKKYLQSIKNKRYGGPSSGAPPPS
B27: P224 (peptide)
peptide: Hexanoyl-HSEAVFTDNYTRLRKQVAAKKYLQSIKNKRYGGPSSGAPPPS
B28: P253 (peptide)
peptide: Hexanoyl-HSDAVFTDNYTRLQKQVAAKQYLQSIKNKRYGGPSSGAPPPS
B29: P203 (peptide)
peptide: Hexanoyl-HSDAVFTDNYTRLRKQVAAKKYLQSIKNKRFGGPSSGAPPPS
B30: P275 (peptide)
peptide: Hexanoyl-HSDAVFTDNYTRLRKQVAGKKYLQSIKNKRYGGPSSGAPPPS
B31: P195 (peptide)
peptide: Hexanoyl-HSDAVFTDNYTRLLAQLALQKYLQSIKNKRYGGPSSGAPPPS
B32: P186 (peptide)
peptide: Hexanoyl-HSDAVFTDNYTRLRKQVAAKFYLQSIKNKRYGGPSSGAPPPS
B33: P231 (peptide)
peptide: Hexanoyl-HSDAVFTDNYTRLRKQVAAKKYFQSIKNKRYGGPSSGAPPPS
B34: P230 (peptide)
peptide: Hexanoyl-HSDAVFTDNYTRLRKQVAAKKYWQSIKNKRYGGPSSGAPPPS
B35: P252 (peptide)
peptide: Hexanoyl-HSDAVFTDNYTRLQKQVAAQKYLQSIKNKRYGGPSSGAPPPS
B36: P234 (peptide)
peptide: Hexanoyl-HSDAVFTDNYTRLRKQVAAKKYVQSIKNKRYGGPSSGAPPPS
B37: P197 (peptide)
peptide: Hexanoyl-HSDAVFTDNYTRLLAKLAAQKYLQSIKNKRYGGPSSGAPPPS
B38: P192 (peptide)
peptide: Hexanoyl-HSDAVFTDQYTRLLAKLALQKYLQSIKQKRYGGPSSGAPPPS
B39: P290 (peptide)
peptide: Hexanoyl-HSDAVFTDNYTRLRKQLAAKKYLQSIKNKRYGGPSSGAPPPS
B40: P210 (peptide)
peptide: Hexanoyl-HSDA[dV]FTDNYTRLRKQVAAKKYLQSIKNKRYGGPSSGAPPPS
B41: P209 (peptide)
peptide: Hexanoyl-HSD[Aib]VFTDNYTRLRKQVAAKKYLQSIKNKRYGGPSSGAPPPS
modifications: ends and bridges not checked
B42: P232 (peptide)
peptide: Hexanoyl-HSDAVFTDNYTRLRKQVAAKKYTQSIKNKRYGGPSSGAPPPS

Where no end group is shown, it is not given here. [ ]: non-standard residue; d: D form. The star is where a group is joined. Met(O) = CS(=O)CC[C@H](N)C(=O)O; NMeV = CN[C@H](C(=O)O)C(C)C; NMeA = CN[C@@H](C)C(=O)O; Hexanoyl = CCCCCC(=O)*; Aib = CC(C)(N)C(=O)O; Mpa = O=C(O)CCS

This experiment addresses T1, human VPAC2 receptor (human, UniProt P41587 24-438).
T1 sequence (looked up): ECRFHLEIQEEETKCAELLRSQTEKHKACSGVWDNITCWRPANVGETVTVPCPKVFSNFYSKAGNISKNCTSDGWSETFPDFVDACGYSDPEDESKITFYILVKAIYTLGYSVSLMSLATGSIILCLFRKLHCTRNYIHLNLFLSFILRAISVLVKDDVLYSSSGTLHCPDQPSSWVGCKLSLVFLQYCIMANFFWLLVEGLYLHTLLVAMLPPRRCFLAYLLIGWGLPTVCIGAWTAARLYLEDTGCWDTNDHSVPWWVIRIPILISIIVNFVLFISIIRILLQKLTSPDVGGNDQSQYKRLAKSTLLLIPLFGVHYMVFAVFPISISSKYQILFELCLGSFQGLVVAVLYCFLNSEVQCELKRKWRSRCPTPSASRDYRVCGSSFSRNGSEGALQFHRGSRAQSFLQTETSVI
The experiment in a line: cell-based or functional assay.
For B1, the “EC50 cAMP, Alpha Screen” value is 0.13 nM.

As for B2, the “EC50 cAMP, Alpha Screen” value was 5.82 nM.

For the molecule B3, the “EC50 cAMP, Alpha Screen” value was 3.48 nM.

Regarding B4, the “EC50 cAMP, Alpha Screen” value was 1.98 nM.

In the case of B5, the “EC50 cAMP, Alpha Screen” value amounted to 29.6 nM.

On to B6, for which the “EC50 cAMP, Alpha Screen” value stood at 0.18 nM.

For B7, the “EC50 cAMP, Alpha Screen” value stood at 0.93 nM.

On to B8, for which the “EC50 cAMP, Alpha Screen” value stood at 1.02 nM.

On to B9, for which the “EC50 cAMP, Alpha Screen” value worked out at 0.83 nM.

B10: the “EC50 cAMP, Alpha Screen” value is 1.08 nM.

As to B11, the “EC50 cAMP, Alpha Screen” value came to 989 nM.

For B12, the “EC50 cAMP, Alpha Screen” value was determined as 1.14 nM.

As to B13, the “EC50 cAMP, Alpha Screen” value came to 50.1 nM.

As to B14, the “EC50 cAMP, Alpha Screen” value was 0.12 nM.

Turning to B15, the “EC50 cAMP, Alpha Screen” value is 0.17 nM.

Regarding B16, the “EC50 cAMP, Alpha Screen” value worked out at 0.24 nM.

B17: the “EC50 cAMP, Alpha Screen” value is 2.6 nM.

Regarding B18, the “EC50 cAMP, Alpha Screen” value stood at 0.12 nM.

For the molecule B19, the “EC50 cAMP, Alpha Screen” value worked out at 0.12 nM.

For the molecule B20, the “EC50 cAMP, Alpha Screen” value came to 0.86 nM.

B21: the “EC50 cAMP, Alpha Screen” value worked out at 0.22 nM.

In the case of B22, the “EC50 cAMP, Alpha Screen” value turned out to be 0.82 nM.

For the molecule B23, the “EC50 cAMP, Alpha Screen” value was determined as 0.18 nM.

With B24, the “EC50 cAMP, Alpha Screen” value came out at 0.23 nM.

On to B25, for which the “EC50 cAMP, Alpha Screen” value worked out at 0.11 nM.

As for B26, the “EC50 cAMP, Alpha Screen” value was found to be 0.16 nM.

In the case of B27, the “EC50 cAMP, Alpha Screen” value was determined as 0.14 nM.

For B28, the “EC50 cAMP, Alpha Screen” value was 0.46 nM.

B29: the “EC50 cAMP, Alpha Screen” value is 0.14 nM.

Regarding B30, the “EC50 cAMP, Alpha Screen” value came to 0.32 nM.

Regarding B31, the “EC50 cAMP, Alpha Screen” value turned out to be 0.25 nM.

As for B32, the “EC50 cAMP, Alpha Screen” value turned out to be 0.15 nM.

On to B33, for which the “EC50 cAMP, Alpha Screen” value turned out to be 0.26 nM.

For B34, the “EC50 cAMP, Alpha Screen” value was 0.3 nM.

B35: the “EC50 cAMP, Alpha Screen” value stood at 0.26 nM.

With B36, the “EC50 cAMP, Alpha Screen” value came out at 0.16 nM.

Turning to B37, the “EC50 cAMP, Alpha Screen” value came out at 0.09 nM.

As for B38, the “EC50 cAMP, Alpha Screen” value is 0.18 nM.

With B39, the “EC50 cAMP, Alpha Screen” value worked out at 0.22 nM.

Regarding B40, the “EC50 cAMP, Alpha Screen” value is 0.91 nM.

With B41, the “EC50 cAMP, Alpha Screen” value turned out to be 0.1 nM.

B42: the “EC50 cAMP, Alpha Screen” value worked out at 1.94 nM.
